Assay [1] deals with PD-L1 (human) (UniProt Q9NZQ7).
Target sequence in this assay (Q9NZQ7 19-290): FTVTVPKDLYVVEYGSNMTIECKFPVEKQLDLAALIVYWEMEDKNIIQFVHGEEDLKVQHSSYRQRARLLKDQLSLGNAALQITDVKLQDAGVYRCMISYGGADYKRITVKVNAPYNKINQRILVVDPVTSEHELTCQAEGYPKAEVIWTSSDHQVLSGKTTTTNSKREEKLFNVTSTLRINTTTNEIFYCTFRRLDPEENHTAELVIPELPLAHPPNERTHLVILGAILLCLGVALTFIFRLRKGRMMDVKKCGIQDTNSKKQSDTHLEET
The target in assay [2] is CD28 (human) (UniProt P10747).
Assay [3] addresses PD-L1 (human) (UniProt Q9NZQ7). This is another data set of the same source.
Target sequence in this assay (Q9NZQ7 19-290): as above
In assay [4] the target is CD28 (human) (UniProt P10747). This is another data set of the same source.
For assay [5], the target named is PD-L1 (human) (UniProt Q9NZQ7). The source holds these as a separate data set.
Target sequence in this assay (Q9NZQ7 19-290 limits assumed): as the sequence (Q9NZQ7 19-290) above
Assay [6] concerns the target CD28 (human) (UniProt P10747). This is another data set of the same source.
For assay [7], the target named is PD-L1 (human) (UniProt Q9NZQ7). The experiment in a line: flow cytometry, CHO cells stably expressing PD-L1. (A flow cytometer gives signals particle by particle.)
Target sequence in this assay (Q9NZQ7 19-290): as above
The target of assay [8] is CD28 (human) (UniProt P10747). The experiment in a line: flow cytometry, Jurkat cells (CD28).
Assay [9] addresses PD-L1 (human) (UniProt Q9NZQ7). The experiment in a line: flow cytometry, MFI on PD-L1 cells over MFI on CD28 cells.
Target sequence in this assay (Q9NZQ7 19-290): as above
The target of assay [10] is human CTLA-4 (human) (UniProt P16410). The experiment in a line: flow cytometry, CHO cells stably expressing CTLA4.
For assay [11], the target named is PD-L1 (human) (UniProt Q9NZQ7). The experiment in a line: flow cytometry, CHO cells expressing huPD-L1.
Target sequence in this assay (Q9NZQ7 19-290): as above
Assay [12] has as its target human CTLA-4 (human) (UniProt P16410). The experiment in a line: flow cytometry, CHO cells expressing huCTLA4.
For assay [13], the target named is CD28 (human) (UniProt P10747). The experiment in a line: flow cytometry, Jurkat/IL2 reporter cells (endogenous CD28).

human CTLA-4 (human), sequence (P16410 36-223): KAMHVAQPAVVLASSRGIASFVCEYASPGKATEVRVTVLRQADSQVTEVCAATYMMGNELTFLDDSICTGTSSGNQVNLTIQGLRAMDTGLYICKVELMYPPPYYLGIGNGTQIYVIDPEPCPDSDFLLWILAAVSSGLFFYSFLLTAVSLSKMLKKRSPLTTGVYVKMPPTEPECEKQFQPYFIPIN

As to “CD80 A26E/E35D/M47L/L85Q IgV-Fc (inert) (Fc fusion)”, the IL-2 release, primary T cells + K562/OKT3/PD-L1, 100 nM in assay [1] and in assay [2] was 1460 in each case. Also, the Jurkat/IL2 reporter RLU at 50 nM, CHO/OKT3/PD-L1 aAPC in assay [3] and in assay [4] was 2000 RLU each time. For the same substance, in [4], the Jurkat/IL2 reporter RLU at 50 nM, CHO/OKT3 aAPC without PD-L1 was determined as 432 RLU.

Turning to “CD80 A71D/L72V/E95K IgV-Fc (inert) (Fc fusion)”, the Jurkat/IL2 reporter RLU at 50 nM, CHO/OKT3/PD-L1 aAPC in [3] and in assay [4] was 755 RLU throughout. In [4], the Jurkat/IL2 reporter RLU at 50 nM, CHO/OKT3 aAPC without PD-L1 stood at 644 RLU.

With “CD80 E23G/A26S/E35D/T62N/A71D/L72V/L85M IgV-Fc (inert) (Fc fusion)”, the IL-2 release, primary T cells + K562/OKT3/PD-L1, 100 nM in [1] and in assay [2] was 102 each time. Besides, the Jurkat/IL2 reporter RLU at 50 nM, CHO/OKT3/PD-L1 aAPC in [3] and in [4] was 695 RLU throughout. For the same substance, in assay [4], the Jurkat/IL2 reporter RLU at 50 nM, CHO/OKT3 aAPC without PD-L1 came to 606 RLU.

On to CD80 E35D IgV-Fc (inert) (Fc fusion), for which the IL-2 release, primary T cells + K562/OKT3/PD-L1, 100 nM in assay [1] and in assay [2] was 2740 each time. In addition, the Jurkat/IL2 reporter RLU at 50 nM, CHO/OKT3/PD-L1 aAPC in assay [3] and in assay [4] was 1610 RLU each time. For the same substance, in assay [4], the Jurkat/IL2 reporter RLU at 50 nM, CHO/OKT3 aAPC without PD-L1 was 448 RLU.

“CD80 E35D/D46V/L85Q IgV-Fc (inert) (Fc fusion)”: the IL-2 release, primary T cells + K562/OKT3/PD-L1, 100 nM in assay [1] and in assay [2] was 1430 each time. In assay [4], this substance came in with a Jurkat/IL2 reporter RLU at 50 nM, CHO/OKT3 aAPC without PD-L1 of 720 RLU.

Regarding “CD80 E35D/M47I IgV-Fc (inert) (Fc fusion)”, the IL-2 release, primary T cells + K562/OKT3/PD-L1, 100 nM in assay [1] and in assay [2] was 8310 throughout. For the same substance, the Jurkat/IL2 reporter RLU at 50 nM, CHO/OKT3/PD-L1 aAPC in [3] and in [4] was 3780 RLU each time. In assay [4], this substance registered a Jurkat/IL2 reporter RLU at 50 nM, CHO/OKT3 aAPC without PD-L1 of 894 RLU.

As for “CD80 E35D/M47I/L70M IgV-Fc (inert) (Fc fusion)”, the IL-2 release, primary T cells + K562/OKT3/PD-L1, 100 nM in [1] and in [2] was 8390 each time. In addition, the Jurkat/IL2 reporter RLU at 50 nM, CHO/OKT3/PD-L1 aAPC in assay [3] and in [4] was 2630 RLU throughout. This substance gave a Jurkat/IL2 reporter RLU at 50 nM, CHO/OKT3 aAPC without PD-L1 in [4] of 600 RLU.

Consider “CD80 E35D/M47L IgV-Fc (inert) (Fc fusion)”, for which the IL-2 release, primary T cells + K562/OKT3/PD-L1, 100 nM in [1] and in assay [2] was 7530 throughout. In [4], this substance yielded a Jurkat/IL2 reporter RLU at 50 nM, CHO/OKT3 aAPC without PD-L1 of 817 RLU.

Consider “CD80 E35G/K54E/A71D/L72P IgV-Fc (inert) (Fc fusion)”, for which the IL-2 release, primary T cells + K562/OKT3/PD-L1, 100 nM in assay [1] and in assay [2] was 59 each time. Moreover, the Jurkat/IL2 reporter RLU at 50 nM, CHO/OKT3/PD-L1 aAPC in [3] and in assay [4] was 476 RLU throughout. This substance came in with a Jurkat/IL2 reporter RLU at 50 nM, CHO/OKT3 aAPC without PD-L1 in [4] of 440 RLU.

For “CD80 H18Y/A26T/E35D/A71D/L85Q IgV-Fc (inert) (Fc fusion)”, the Jurkat/IL2 reporter RLU at 50 nM, CHO/OKT3/PD-L1 aAPC in assay [3] came out at 1160 RLU. Further, in assay [4], the Jurkat/IL2 reporter RLU at 50 nM, CHO/OKT3/PD-L1 aAPC worked out at 1160 RLU and the Jurkat/IL2 reporter RLU at 50 nM, CHO/OKT3 aAPC without PD-L1 stood at 926 RLU.

Consider “variant CD80 IgV-Fc A26E/E35D/V68M/A71G/D90G (Fc fusion)”, for which the IL-2 luciferase reporter, fold increase over WT CD80-IgV-Fc at 5.0 nM in assay [5] and in [6] was 2.34 fold throughout. Further, the Fold change to WT CD80 was 608 fold in [7], 47.9 fold in [8] and 17.1 fold in assay [10]. Also, the MFI at 33.3 nM was found to be 26500 MFI in [7], 2100 MFI in assay [8] and 23300 MFI in assay [10]. Moreover, the Ratio of PDL1:CD28 in assay [9] is 12.6.

With “variant CD80 IgV-Fc E24D/Q33L/E35D/M47V/K54R/L85Q (Fc fusion)”, the MFI at 33.3 nM stood at 67100 MFI in assay [11] and 311000 MFI in assay [12].

On to “variant CD80 IgV-Fc E35D/M47I/K54R/L85E (Fc fusion)”, for which the MFI at 33.3 nM in assay [11] came out at 36900 MFI; in assay [12], 8660 MFI.

“variant CD80 IgV-Fc E35D/M47V/T62A/A71G/V83A/Y87H/L97M (Fc fusion)”: the MFI at 33.3 nM in assay [11] is 77500 MFI; in assay [12], 18100 MFI; in [13], 305 MFI.

For “variant CD80 IgV-Fc H18Y/A26E/E35D/A71G/D90G (Fc fusion)”, the IL-2 luciferase reporter, fold increase over WT CD80-IgV-Fc at 5.0 nM in assay [5] and in assay [6] was 2.45 fold in each case. The Fold change to WT CD80 in [7] is 340 fold; in assay [8], 24.5 fold; in assay [10] it was -0.1 fold. In addition, the MFI at 33.3 nM is 14800 MFI in assay [7], 1080 MFI in assay [8] and -100 MFI in assay [10]. The Ratio of PDL1:CD28 in assay [9] worked out at 13.8.

As to “variant CD80 IgV-Fc H18Y/A26E/E35D/M47L/A71G (Fc fusion)”, the IL-2 luciferase reporter, fold increase over WT CD80-IgV-Fc at 5.0 nM in assay [5] and in assay [6] was 2.42 fold each time. The Fold change to WT CD80 turned out to be 387 fold in assay [7], 8.6 fold in assay [8] and 14.2 fold in assay [10]. The results for the MFI at 33.3 nM in assay [7], in assay [8] and in assay [10] were 16900 MFI, 379 MFI and 19400 MFI, respectively. For the same substance, the Ratio of PDL1:CD28 in assay [9] is 44.6.

For “variant CD80 IgV-Fc H18Y/A26E/E35D/M47L/D90G (Fc fusion)”, the IL-2 luciferase reporter, fold increase over WT CD80-IgV-Fc at 5.0 nM in assay [5] and in assay [6] was 2.37 fold throughout. The Fold change to WT CD80 was determined as 291 fold in assay [7], 31.4 fold in [8] and 14.5 fold in [10]. Also, the figures for the MFI at 33.3 nM in assay [7], in assay [8] and in [10] were 12700 MFI, 1380 MFI and 19700 MFI, respectively. Besides, the Ratio of PDL1:CD28 in [9] amounted to 9.2.

In the case of “variant CD80 IgV-Fc H18Y/A26E/E35D/M47L/V68M (Fc fusion)”, the IL-2 luciferase reporter, fold increase over WT CD80-IgV-Fc at 5.0 nM in assay [5] and in assay [6] was 2.29 fold throughout. Further, the Fold change to WT CD80 in assay [7] was 566 fold; in [8] it was 14.3 fold; in assay [10] it was 14.7 fold. For the same substance, the figures for the MFI at 33.3 nM in assay [7], in assay [8] and in [10] were 24700 MFI, 626 MFI and 20000 MFI, respectively. The Ratio of PDL1:CD28 in assay [9] worked out at 39.4.

“variant CD80 IgV-Fc H18Y/A26E/E35D/M47L/V68M/D90G (Fc fusion)”: the IL-2 luciferase reporter, fold increase over WT CD80-IgV-Fc at 5.0 nM in [5] and in assay [6] was 2.29 fold throughout. For the same substance, the values for the Fold change to WT CD80 in assay [7], in assay [8] and in [10] were 578 fold, 60.9 fold and 18.3 fold, respectively. Besides, the MFI at 33.3 nM in assay [7] stood at 25200 MFI; in [8], 2680 MFI; in assay [10] it was 24900 MFI. For the same substance, in [9], the Ratio of PDL1:CD28 is 9.4.

In the case of “variant CD80 IgV-Fc H18Y/A26E/E35D/V68M/A71G (Fc fusion)”, the IL-2 luciferase reporter, fold increase over WT CD80-IgV-Fc at 5.0 nM in assay [5] and in assay [6] was 2.46 fold in each case. For the same substance, the Fold change to WT CD80 in assay [7] was 630 fold; in assay [8], 9 fold; in [10] it was 14.3 fold. Also, the MFI at 33.3 nM in assay [7] amounted to 27500 MFI; in assay [8], 394 MFI; in [10], 19400 MFI. In assay [9], the Ratio of PDL1:CD28 turned out to be 69.7.

On to “variant CD80 IgV-Fc H18Y/A26E/E35D/V68M/A71G/D90G (Fc fusion)”, for which the IL-2 luciferase reporter, fold increase over WT CD80-IgV-Fc at 5.0 nM in [5] and in assay [6] was 2.41 fold throughout. For the same substance, the Fold change to WT CD80 in assay [7] was 658 fold; in assay [8], 40 fold; in assay [10] it was 17.2 fold. For the same substance, the MFI at 33.3 nM in assay [7] is 28700 MFI; in assay [8] it was 1760 MFI; in assay [10], 23400 MFI. Further, the Ratio of PDL1:CD28 in assay [9] is 16.3.

“variant CD80 IgV-Fc H18Y/A26E/V68M/A71G/D90G (Fc fusion)”: the IL-2 luciferase reporter, fold increase over WT CD80-IgV-Fc at 5.0 nM in [5] and in [6] was 2.5 fold in each case. For the same substance, the Fold change to WT CD80 in assay [7] came out at 639 fold; in assay [8], 61.1 fold; in [10] it was 13.5 fold. For the same substance, the values for the MFI at 33.3 nM in [7], in assay [8] and in assay [10] were 27900 MFI, 2680 MFI and 18300 MFI, respectively. Besides, the Ratio of PDL1:CD28 in assay [9] stood at 10.4.

As for “variant CD80 IgV-Fc Q27H/E35D/M47L/L85Q/R94Q/E95K (Fc fusion)”, the MFI at 33.3 nM in assay [11] was 36100 MFI; in [13], 282 MFI.

For “variant CD80 IgV-Fc Q33L/E35D/M47V (Fc fusion)”, the MFI at 33.3 nM was found to be 47900 MFI in assay [11] and 47600 MFI in assay [12].

For “variant CD80 IgV-Fc Q33L/E35D/M47V/T79A (Fc fusion)”, the MFI at 33.3 nM was found to be 62100 MFI in [11] and 28900 MFI in assay [12].

As for “variant CD80 IgV-Fc Q33R/E35D/K37E/M47V/L85Q (Fc fusion)”, the MFI at 33.3 nM in assay [11] was 44400 MFI; in assay [13], 258 MFI.

The values are drawn from patent US20220177587A1, “METHODS AND USES OF VARIANT CD80 FUSION PROTEINS AND RELATED CONSTRUCTS” (Alpine Immune Sciences, Inc., priority 2018, published 2022).
